Data set [1] relates to MIA Paca-2 cells. To be noted: nude mice; PEG-asparaginase 12.5 or 25 IU/g per day i/p for 14 days; gemcitabine 80 mg/kg i/p days 1, 4, 7, 10; cited from earlier work.
Data set [2] has as its system Mia PaCa-2 human pancreatic tumour cells. In words: Growth inhibition of human pancreatic tumours (Mia PaCa-2) in nude mice. The format is in vivo. To be noted: after 57 days, L-Aspa RBC single 200 IU/kg i.v., gemcitabine 4 x 60 mg/kg i.v. The text has this: The purpose of this experiment is to inject L-Aspa RBC into mice bearing human pancreatic tumours and to observe a tumour growth inhibition. A cell line sensitive to L-asparaginase in vitro, and deficient in L-asparagine synthase, was selected: Mia PaCa-2. To study the tumour growth inhibition after the injection of L-Aspa RBC, an in vivo protocol was set up with 4 groups of 12 mice. A reference treatment for cancer of the pancreas, gemcitabine, is included in the protocol. Human pancreatic tumour cells (Mia PaCa-2) in exponential growth phase (origin ATCC: American Type Culture Collection) were subjected to tryptic digestion, then counted and washed before finally being resuspended in a DMEM serum-free medium in order for them to be injected subcutaneously into 48 athymic nude/nude mice. The 48 athymic nude/nude (nude balb/c) mice, aged 5-6 weeks and between 18 and 22 g in weight, were supplied by Harlan (France). The animals were kept for 7 days in a specialized SPF (specific-pathogen-free) unit before the treatment. The 48 mice were divided randomly into 4 groups of 12 mice. […]

For data set [3], the system named is MIA Paca-2 cells. To be noted: PEG-asparaginase 0.8 kIU/kg; gemcitabine 80 mg/kg; mice; cited from earlier work.
The subject of data set [4] is PANC-1 human pancreatic tumor (clone no. 6sC). In words: In vivo anti-tumoral study in mice bearing pancreatic tumor PANC-1. To be noted: day 43, L-aspa RBC single 200 IU/kg i.v., gemcitabine 4 x 80 mg/kg i.v.
Description: The objective of this study was to assess the antitumoral effects of L-asparaginase encapsulated in red blood cells (L-aspa RBC) administered in a human pancreatic tumor (PANC-1) xenograft model.
In this study, 4 groups of 15 mice received either L-asparaginase encapsulated in red blood cells, gemcitabine (reference treatment in pancreatic cancer), a combination of both agents or control item. A last group of 10 mice received no treatment and was used as control group.
A Log-growing culture of human pancreatic tumor cells, PANC-1 (obtained from ECCAC, UK), was subcloned and the clone no.
Clone no 6sC was trypsinized, counted, washed and resuspended in serum-free DMEM medium for sub-cutaneous injection to 100 nu/nu athymic mice.
Hundred athymic Nude mice of 5 week-old, weighing 20 g+/−3 g were supplied by Harlan France. […]
Four days after cell implantation, tumor volumes were measured and ranked according to size and median was calculated. […]
Tumor measurements were recorded 3 times a week (on Mondays, Wednesday and Friday) during 43 days.
The relative tumor volume is calculated by dividing the tumor volume at a given day by the tumor volume before treatment avoiding the bias due to statistical difference in tumor volume between groups on the day of injection.
The conditions of data set [5]: direct injection; cited from earlier work.
The next data set relates to PANC-1 cells. To be noted: cited from earlier work.
The subject of another data set is pancreatic carcinoma. To be noted: cited from earlier work.
The subject of data set [6] is human pulmonary and melanoma cells. To be noted: Yunis et al. 1977; cited from earlier work.
For data set [7], the system named is MIA Paca-2 cells. To be noted: cited from earlier work.
For the next data set, the system named is solid tumor. To be noted: trial suspended; cited from earlier work.
A further data set has as its system AsPC-1. To be noted: AACR 2006; cited from earlier work.
The test system of another data set is BxPC-3 cells. To be noted: 10 IU/ml; Denis et al. 1999; cited from earlier work.
Another data set deals with PANC 10.05. To be noted: AACR 2006; cited from earlier work.
The test system of a further data set is CFPAC-2. To be noted: AACR 2006; cited from earlier work.

With `Nc1ccn([C@@H]2O[C@H](CO)[C@@H](O)C2(F)F)c(=O)n1` [gemcitabine], the “cell growth inhibition in vivo” value in the data set on MIA Paca-2 cells [1] is listed as 63.5%. This molecule registered a tumour volume in [2] of 1353±1016 mm^3. In the data set on MIA Paca-2 cells [3], the “decrease of tumour volume” value is listed as 29%. The “mouse survival (mice remaining / still alive)” value in data set [4] was 20%. This molecule gave a relative tumor volume in data set [4] (tumor volume divided by volume before treatment) of 51.8±17.1.

B1: asparaginase (protein, UniProt P00805 23-348, looked up)
L-asparaginase 2: LPNITILATGGTIAGGGDSATKSNYTVGKVGVENLVNAVPQLKDIANVKGEQVVNIGSQDMNDNVWLTLAKKINTDCDKTDGFVITHGTDTMEETAYFLDLTVKCDKPVVMVGAMRPSTSMSADGPFNLYNAVVTAADKASANRGVLVVMNDTVLDGRDVTKTNTTDVATFKSVNYGPLGYIHNGKIDYQRTPARKHTSDTPFDVSKLNELPKVGIVYNYANASDLPAKALVDAGYDGIVSAGVGNGNLYKSVFDTLATAAKTGTAVVRSSRVPTGATTQDAEVDDAKYGFVASGTLNPQKARVLLQLALTQTKDPQQIQQIFNQY
notes: bacterial enzyme, CAS number 9015-68-3, hydrolyses and depletes asparagine
Turning to B1, the allergic reaction incidence in [5] was 27%. For the same molecule, the “inhibition of cell growth” value is listed as “no effect” in the data set on PANC-1 cells (0.0025 IU/ml, Wu et al. 1982) and “no effect” with MIA Paca-2 cells [7] (0.0025 IU/ml, Wu et al. 1982). For the same molecule, the “effect on cell growth” value in the data set on PANC-1 cells (1 IU/ml, Yunis et al. 1977) is “has an effect”; with MIA Paca-2 cells [7] (0.5 and 1 IU/ml, Yunis et al. 1977), “total inhibition of cell growth with cell death”. The side-effects entry in the data set with pancreatic carcinoma (IV 1000 IU/kg/day, ten patients with inoperable pancreatic cancer, treatment stopped early) is recorded as “Serious side-effects appeared rapidly”. The clinical response entry with pancreatic carcinoma (two of the patients, Lessner 1977) was “no response”. Moreover, the effect on growth entry in [6] is recorded as “no effect”. Further, the “effect on the growth of the cells” value with MIA Paca-2 cells [7] (0.1 IU/ml, Yunis et al. 1977) was “significant effect on the growth of the cells”.

B2: PEG-asparaginase: pegylated form of asparaginase (Oncaspar, Enzon Pharmaceuticals) (protein, UniProt P00805 23-348, looked up)
L-asparaginase 2: LPNITILATGGTIAGGGDSATKSNYTVGKVGVENLVNAVPQLKDIANVKGEQVVNIGSQDMNDNVWLTLAKKINTDCDKTDGFVITHGTDTMEETAYFLDLTVKCDKPVVMVGAMRPSTSMSADGPFNLYNAVVTAADKASANRGVLVVMNDTVLDGRDVTKTNTTDVATFKSVNYGPLGYIHNGKIDYQRTPARKHTSDTPFDVSKLNELPKVGIVYNYANASDLPAKALVDAGYDGIVSAGVGNGNLYKSVFDTLATAAKTGTAVVRSSRVPTGATTQDAEVDDAKYGFVASGTLNPQKARVLLQLALTQTKDPQQIQQIFNQY
modifications: PEG
Turning to B2, in the data set with solid tumor, the clinical trial outcome was “toxicity was reached before efficacy”. The “in vitro cytotoxicity (IC50)” value is “greater than 20 IU/ml” in the data set on AsPC-1; 0.27 IU/ml in the data set with PANC-1 cells (AACR 2006); 0.46 IU/ml in the data set on PANC 10.05; “greater than 20 IU/ml” with CFPAC-2; 0.66 IU/ml in the data set with MIA Paca-2 cells [7] (AACR 2006). Also, the cell growth inhibition was 51% with BxPC-3 cells; 100% with PANC-1 cells (1 IU/ml, Denis et al. 1999); 61% in the data set with MIA Paca-2 cells [7] (1 IU/ml, Denis et al. 1999). Moreover, the IC50 with PANC-1 cells (Denis et al. 1999) is recorded as 0.25 IU/ml; in the data set on MIA Paca-2 cells [7] (Denis et al. 1999) it was 0.13 IU/ml. Further, the “cell growth inhibition in vivo” value with MIA Paca-2 cells [1] was 59%. Moreover, the “decrease of tumour volume” value in the data set on MIA Paca-2 cells [3] is reported as 14%.

Values taken from patent US8974802B2, “Medicament for the treatment of cancer of the pancreas” (Erytech Pharma, priority 2007, dated 2015).
